Assays:
Experiment in all cases: holdup assay
Design in all cases: key: below the threshold = too weak to quantify, mostly under pKd 3.1 to 4
MAGI2_6, Q86UL8 = molecular target: MAGI2_6, Q86UL8
GRIP1_7, Q9Y3R0 = molecular target: T1, GRIP1_7, Q9Y3R0
T1 sequence (Q9Y3R0 999-1096, limits assumed, looked up): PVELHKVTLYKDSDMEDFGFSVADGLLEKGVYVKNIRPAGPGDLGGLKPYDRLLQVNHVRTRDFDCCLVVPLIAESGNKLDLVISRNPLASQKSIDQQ

PDLIM1, O00151 = molecular target: PDLIM1, O00151
MPP2, Q14168 = molecular target: T2, MPP2, Q14168
T2 sequence (Q14168 180-250, limits assumed, looked up): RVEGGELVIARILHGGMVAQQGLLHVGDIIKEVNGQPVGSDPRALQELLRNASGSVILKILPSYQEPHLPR

RADIL, Q96JH8 = molecular target: T3, RADIL, Q96JH8
T3 sequence (Q96JH8 971-1071, limits assumed, looked up): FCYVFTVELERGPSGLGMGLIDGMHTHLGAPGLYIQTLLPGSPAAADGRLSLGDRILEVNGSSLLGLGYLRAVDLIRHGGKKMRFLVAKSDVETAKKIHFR

DLG3_2, Q92796 = molecular target: T4, DLG3_2, Q92796
T4 sequence (Q92796 221-321, limits assumed, looked up): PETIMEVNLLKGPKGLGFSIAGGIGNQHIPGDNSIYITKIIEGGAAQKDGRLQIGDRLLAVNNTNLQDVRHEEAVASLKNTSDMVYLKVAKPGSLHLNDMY

MAGI3_2, Q5TCQ9 = molecular target: MAGI3_2, Q5TCQ9
NHERF4_4, Q86UT5 = molecular target: NHERF4_4, Q86UT5
SIPA1L2, Q9P2F8 = molecular target: T5, SIPA1L2, Q9P2F8
T5 sequence (Q9P2F8 945-1036, limits assumed, looked up): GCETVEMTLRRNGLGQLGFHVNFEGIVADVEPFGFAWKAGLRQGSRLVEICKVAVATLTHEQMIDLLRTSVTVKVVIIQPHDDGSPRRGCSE

GRIP1_2, Q9Y3R0 = molecular target: T6, GRIP1_2, Q9Y3R0
T6 sequence (Q9Y3R0 145-248, limits assumed, looked up): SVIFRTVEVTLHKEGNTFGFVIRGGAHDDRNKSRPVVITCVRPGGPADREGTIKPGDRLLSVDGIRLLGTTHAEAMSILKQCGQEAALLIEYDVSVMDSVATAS

MAGI2_4, Q86UL8 = molecular target: MAGI2_4, Q86UL8
FRMPD2_2, Q68DX3 = molecular target: FRMPD2_2, Q68DX3
Inadl_5, Q8NI35 = molecular target: Inadl_5, Q8NI35
LRRC7, Q96NW7 = molecular target: T7, LRRC7, Q96NW7
T7 sequence (Q96NW7 1440-1537, limits assumed, looked up): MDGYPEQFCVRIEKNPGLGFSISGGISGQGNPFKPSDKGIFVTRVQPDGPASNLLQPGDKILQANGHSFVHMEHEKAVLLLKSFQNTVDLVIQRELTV

DLG4_1, P78352 = molecular target: DLG4_1, P78352
SCRIB_3, Q14160 = molecular target: SCRIB_3, Q14160
TJP2_1, Q9UDY2 = molecular target: TJP2_1, Q9UDY2
LIN7A, O14910 = molecular target: T8, LIN7A, O14910
T8 sequence (O14910 103-200, limits assumed, looked up): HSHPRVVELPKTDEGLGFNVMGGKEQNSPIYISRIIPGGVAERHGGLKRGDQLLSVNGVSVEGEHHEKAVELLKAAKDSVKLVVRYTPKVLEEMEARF

MAGI1_2, Q96QZ7 = molecular target: MAGI1_2, Q96QZ7
MAST1, Q9Y2H9 = molecular target: MAST1, Q9Y2H9
MAGI1_1, Q96QZ7 = molecular target: MAGI1_1, Q96QZ7
MPDZ_10, O75970 = molecular target: T9, MPDZ_10, O75970
T9 sequence (O75970 1624-1722, limits assumed, looked up): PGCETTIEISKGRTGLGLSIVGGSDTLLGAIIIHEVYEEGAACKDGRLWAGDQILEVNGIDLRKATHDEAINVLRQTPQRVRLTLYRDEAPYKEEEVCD

FRMPD2_3, Q68DX3 = molecular target: FRMPD2_3, Q68DX3
LNX1_3, Q8TBB1 = molecular target: LNX1_3, Q8TBB1
TJP1_2, Q07157 = molecular target: TJP1_2, Q07157
DLG3_1, Q92796 = molecular target: T10, DLG3_1, Q92796
T10 sequence (Q92796 125-227, limits assumed, looked up): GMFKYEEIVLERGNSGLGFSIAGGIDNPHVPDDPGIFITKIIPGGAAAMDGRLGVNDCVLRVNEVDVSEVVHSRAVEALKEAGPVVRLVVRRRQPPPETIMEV

Inadl_4, Q8NI35 = molecular target: Inadl_4, Q8NI35
[1] = plain residues with an end cap or a label only (N-terminal biotin on a linker: ado-ado)
[2] = plain residues with an end cap or a label only (N-terminal biotin on a linker: ahx)
[3] = plain residues with an end cap or a label only (N-terminal biotin on a linker: ttds)

Chain of SCRIB_3, Q14160 (Q14160 999-1103): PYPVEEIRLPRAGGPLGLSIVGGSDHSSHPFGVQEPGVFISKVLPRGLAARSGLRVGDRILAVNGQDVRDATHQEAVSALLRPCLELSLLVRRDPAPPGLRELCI
Chain of MAGI3_2, Q5TCQ9 (Q5TCQ9 398-503): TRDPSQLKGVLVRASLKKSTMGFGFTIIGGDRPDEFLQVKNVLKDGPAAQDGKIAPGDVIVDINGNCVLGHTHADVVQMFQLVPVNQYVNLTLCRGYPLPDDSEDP
Chain of MAGI1_2, Q96QZ7 (Q96QZ7 456-580): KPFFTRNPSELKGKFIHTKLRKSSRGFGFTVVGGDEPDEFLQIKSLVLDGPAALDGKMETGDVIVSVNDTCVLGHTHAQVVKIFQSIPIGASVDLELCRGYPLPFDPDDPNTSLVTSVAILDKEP
Chain of Inadl_4, Q8NI35 (Q8NI35 547-651): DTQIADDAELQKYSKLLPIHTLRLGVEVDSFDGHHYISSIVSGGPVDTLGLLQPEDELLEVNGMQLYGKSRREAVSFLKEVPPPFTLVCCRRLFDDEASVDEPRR
Chain of MAGI2_6, Q86UL8 (Q86UL8 1141-1229): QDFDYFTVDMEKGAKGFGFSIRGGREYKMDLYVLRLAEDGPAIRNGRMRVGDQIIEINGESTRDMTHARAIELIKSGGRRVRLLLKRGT
Chain of MAGI2_4, Q86UL8 (Q86UL8 772-865): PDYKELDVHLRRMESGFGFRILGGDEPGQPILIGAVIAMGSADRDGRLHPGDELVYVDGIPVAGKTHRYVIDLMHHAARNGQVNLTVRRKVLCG
Chain of PDLIM1, O00151 (O00151 1-87): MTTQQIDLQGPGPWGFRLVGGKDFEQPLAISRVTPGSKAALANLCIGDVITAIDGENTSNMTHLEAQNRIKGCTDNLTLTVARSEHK
Chain of TJP2_1, Q9UDY2 (Q9UDY2 24-128): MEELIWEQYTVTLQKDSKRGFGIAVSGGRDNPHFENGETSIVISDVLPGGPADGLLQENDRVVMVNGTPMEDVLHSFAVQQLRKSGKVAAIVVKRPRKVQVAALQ
Chain of MAGI1_1, Q96QZ7 (Q96QZ7 1-106): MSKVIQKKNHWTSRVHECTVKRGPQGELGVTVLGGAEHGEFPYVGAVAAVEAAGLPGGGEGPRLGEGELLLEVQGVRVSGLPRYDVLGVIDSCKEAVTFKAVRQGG
Chain of MAST1, Q9Y2H9 (Q9Y2H9 962-1065): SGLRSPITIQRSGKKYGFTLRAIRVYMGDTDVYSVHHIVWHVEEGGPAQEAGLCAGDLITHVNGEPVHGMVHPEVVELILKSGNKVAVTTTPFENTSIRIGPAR
Chain of LNX1_3, Q8TBB1 (Q8TBB1 500-596): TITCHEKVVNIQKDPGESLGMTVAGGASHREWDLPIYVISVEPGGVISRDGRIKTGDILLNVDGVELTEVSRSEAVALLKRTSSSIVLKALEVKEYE
Chain of FRMPD2_2, Q68DX3 (Q68DX3 944-1038): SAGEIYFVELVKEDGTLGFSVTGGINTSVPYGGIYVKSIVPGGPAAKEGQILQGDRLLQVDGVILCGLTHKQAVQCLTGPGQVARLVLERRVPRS
Chain of FRMPD2_3, Q68DX3 (Q68DX3 1073-1166): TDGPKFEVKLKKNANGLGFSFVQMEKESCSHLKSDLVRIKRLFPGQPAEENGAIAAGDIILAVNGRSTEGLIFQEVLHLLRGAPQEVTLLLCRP
Chain of Inadl_5, Q8NI35 (Q8NI35 673-780): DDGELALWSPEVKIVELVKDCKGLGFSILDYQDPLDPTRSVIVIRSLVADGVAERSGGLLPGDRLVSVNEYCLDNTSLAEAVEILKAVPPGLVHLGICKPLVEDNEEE
Chain of TJP1_2, Q07157 (Q07157 181-274): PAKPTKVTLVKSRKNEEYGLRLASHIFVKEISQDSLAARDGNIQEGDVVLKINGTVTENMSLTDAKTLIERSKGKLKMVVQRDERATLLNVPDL
Chain of DLG4_1, P78352 (P78352 62-152): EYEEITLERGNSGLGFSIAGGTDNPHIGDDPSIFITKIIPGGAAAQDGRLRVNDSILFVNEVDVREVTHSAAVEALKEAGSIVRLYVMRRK
Chain of NHERF4_4, Q86UT5 (Q86UT5 464-550): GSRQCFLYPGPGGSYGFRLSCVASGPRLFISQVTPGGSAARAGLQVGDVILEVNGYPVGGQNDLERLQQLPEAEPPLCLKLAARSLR

DAAHHDESNC [FMNL3, Q8IVF7]
pKd (MAGI2_6, Q86UL8; [1]): below the threshold
pKd (GRIP1_7, Q9Y3R0; [1]): below the threshold
pKd (PDLIM1, O00151; [1]): below the threshold
pKd (MPP2, Q14168; [1]): below the threshold
pKd (RADIL, Q96JH8; [1]): below the threshold
pKd (DLG3_2, Q92796; [1]): 4.09
pKd (MAGI3_2, Q5TCQ9; [1]): below the threshold
pKd (NHERF4_4, Q86UT5; [1]): below the threshold
pKd (SIPA1L2, Q9P2F8; [1]): below the threshold
pKd (GRIP1_2, Q9Y3R0; [1]): below the threshold
pKd (MAGI2_4, Q86UL8; [1]): below the threshold
pKd (FRMPD2_2, Q68DX3; [1]): below the threshold
pKd (Inadl_5, Q8NI35; [1]): below the threshold
pKd (LRRC7, Q96NW7; [1]): below the threshold
pKd (DLG4_1, P78352; [1]): below the threshold
pKd (SCRIB_3, Q14160; [1]): below the threshold
pKd (TJP2_1, Q9UDY2; [1]): below the threshold
pKd (LIN7A, O14910; [1]): below the threshold
pKd (MAGI1_2, Q96QZ7; [1]): below the threshold
pKd (MAST1, Q9Y2H9; [1]): below the threshold
pKd (MAGI1_1, Q96QZ7; [1]): below the threshold
pKd (MPDZ_10, O75970; [1]): below the threshold
pKd (FRMPD2_3, Q68DX3; [1]): below the threshold
pKd (LNX1_3, Q8TBB1; [1]): below the threshold
pKd (TJP1_2, Q07157; [1]): below the threshold
pKd (DLG3_1, Q92796; [1]): below the threshold
pKd (Inadl_4, Q8NI35; [1]): below the threshold

KEYDDELTFF [USH1C, Q9Y6N9]
pKd (MAGI2_6, Q86UL8; [2]): below the threshold
pKd (GRIP1_7, Q9Y3R0; [2]): below the threshold
pKd (PDLIM1, O00151; [2]): below the threshold
pKd (MPP2, Q14168; [2]): below the threshold
pKd (RADIL, Q96JH8; [2]): 3.78
pKd (DLG3_2, Q92796; [2]): 3.61
pKd (MAGI3_2, Q5TCQ9; [2]): below the threshold
pKd (NHERF4_4, Q86UT5; [2]): below the threshold
pKd (SIPA1L2, Q9P2F8; [2]): below the threshold
pKd (GRIP1_2, Q9Y3R0; [2]): below the threshold
pKd (MAGI2_4, Q86UL8; [2]): 3.51
pKd (FRMPD2_2, Q68DX3; [2]): below the threshold
pKd (Inadl_5, Q8NI35; [2]): below the threshold
pKd (LRRC7, Q96NW7; [2]): below the threshold
pKd (DLG4_1, P78352; [2]): below the threshold
pKd (SCRIB_3, Q14160; [2]): 3.61
pKd (TJP2_1, Q9UDY2; [2]): below the threshold
pKd (LIN7A, O14910; [2]): below the threshold
pKd (MAGI1_2, Q96QZ7; [2]): below the threshold
pKd (MAST1, Q9Y2H9; [2]): 4.52
pKd (MAGI1_1, Q96QZ7; [2]): below the threshold
pKd (MPDZ_10, O75970; [2]): below the threshold
pKd (FRMPD2_3, Q68DX3; [2]): below the threshold
pKd (LNX1_3, Q8TBB1; [2]): below the threshold
pKd (TJP1_2, Q07157; [2]): below the threshold
pKd (DLG3_1, Q92796; [2]): below the threshold
pKd (Inadl_4, Q8NI35; [2]): below the threshold

KLVIKTETTV [RASSF6, Q6ZTQ3]
pKd (MAGI2_6, Q86UL8; [3]): below the threshold
pKd (GRIP1_7, Q9Y3R0; [3]): 3.72
pKd (PDLIM1, O00151; [3]): below the threshold
pKd (MPP2, Q14168; [3]): below the threshold
pKd (RADIL, Q96JH8; [3]): below the threshold
pKd (DLG3_2, Q92796; [3]): 5.53
pKd (MAGI3_2, Q5TCQ9; [3]): 5.22
pKd (NHERF4_4, Q86UT5; [3]): below the threshold
pKd (SIPA1L2, Q9P2F8; [3]): below the threshold
pKd (GRIP1_2, Q9Y3R0; [3]): below the threshold
pKd (MAGI2_4, Q86UL8; [3]): 4.45
pKd (FRMPD2_2, Q68DX3; [3]): below the threshold
pKd (Inadl_5, Q8NI35; [3]): below the threshold
pKd (LRRC7, Q96NW7; [3]): below the threshold
pKd (DLG4_1, P78352; [3]): 5.04
pKd (SCRIB_3, Q14160; [3]): 4.3
pKd (TJP2_1, Q9UDY2; [3]): below the threshold
pKd (LIN7A, O14910; [3]): 3.65
pKd (MAGI1_2, Q96QZ7; [3]): 4.82
pKd (MAST1, Q9Y2H9; [3]): 4.68
pKd (MAGI1_1, Q96QZ7; [3]): below the threshold
pKd (MPDZ_10, O75970; [3]): below the threshold
pKd (FRMPD2_3, Q68DX3; [3]): below the threshold
pKd (LNX1_3, Q8TBB1; [3]): below the threshold
pKd (TJP1_2, Q07157; [3]): below the threshold
pKd (DLG3_1, Q92796; [3]): 4.52
pKd (Inadl_4, Q8NI35; [3]): below the threshold

EKPIDSETKM [SLC1A3, P43003]
pKd (MAGI2_6, Q86UL8; [1]): below the threshold
pKd (GRIP1_7, Q9Y3R0; [1]): below the threshold
pKd (PDLIM1, O00151; [1]): below the threshold
pKd (MPP2, Q14168; [1]): below the threshold
pKd (RADIL, Q96JH8; [1]): below the threshold
pKd (DLG3_2, Q92796; [1]): below the threshold
pKd (MAGI3_2, Q5TCQ9; [1]): below the threshold
pKd (NHERF4_4, Q86UT5; [1]): below the threshold
pKd (SIPA1L2, Q9P2F8; [1]): below the threshold
pKd (GRIP1_2, Q9Y3R0; [1]): below the threshold
pKd (MAGI2_4, Q86UL8; [1]): below the threshold
pKd (FRMPD2_2, Q68DX3; [1]): below the threshold
pKd (Inadl_5, Q8NI35; [1]): below the threshold
pKd (LRRC7, Q96NW7; [1]): below the threshold
pKd (DLG4_1, P78352; [1]): 3.49
pKd (SCRIB_3, Q14160; [1]): 3.58
pKd (TJP2_1, Q9UDY2; [1]): below the threshold
pKd (LIN7A, O14910; [1]): below the threshold
pKd (MAGI1_2, Q96QZ7; [1]): below the threshold
pKd (MAST1, Q9Y2H9; [1]): 4.67
pKd (MAGI1_1, Q96QZ7; [1]): below the threshold
pKd (MPDZ_10, O75970; [1]): below the threshold
pKd (FRMPD2_3, Q68DX3; [1]): below the threshold
pKd (LNX1_3, Q8TBB1; [1]): below the threshold
pKd (TJP1_2, Q07157; [1]): below the threshold
pKd (DLG3_1, Q92796; [1]): below the threshold
pKd (Inadl_4, Q8NI35; [1]): below the threshold

— paper PMC9482650, “Quantitative fragmentomics allow affinity mapping of interactomes” (Nature Communications, 2022)
